Data as given in article PMC8688572 (The Journal of Biological Chemistry, 2021).

Target: the molecule itself
Assay: negative stain electron microscopy

B1: zebrafish Impdh1a (544) (enzyme)
chain: not shown
B1: binds.
